# Results taken from the supplement of paper PMC12764529.
# ± gives the half width of the 95% confidence interval.
# Tests used:
# [1] = folding stability dG unfold from trypsin proteolysis; higher = more stable
# Procedure, shortened: (§1)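 Unfolding free energy was derived, per protease or combined, against a sequence-predicted unfolded-state K50 and a shared folded-state K50, starting from K50 inferred by Bayesian fitting of sequencing counts. Digestion with trypsin and chymotrypsin was carried out on designed mini-proteins under 80 residues without cysteine in a PA-tagged cDNA display construct. Only designs with AlphaFold2 dimer inter-PAE above 15 were kept.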
# [2] = folding stability dG unfold from chymotrypsin proteolysis; higher = more stable
# Procedure, shortened: as §1
# [3] = folding stability dG unfold (combined trypsin and chymotrypsin); higher = more stable
# Procedure, shortened: as §1
Sequence,folding stability dG unfold [1],folding stability dG unfold [2],folding stability dG unfold [3]
SAGGSAGGSAGPVVVEVDGKLVIFNPEDGTVTVFEFDKDGKLVEEKEFTVPPEVTLVEEDSAGGSAGGSAGG [r17_385_TrROS_Hall],1.42 ± 0.11 kcal/mol,1.06 ± 0.039 kcal/mol,1.27 ± 0.13 kcal/mol
SAGGSAGGSAVSPDETVPIKIDGKEVTVTFNGSKATITFPDGTVIEGTVSTEGSKLTLDLNLSAGGSAGGSA [r18_172_JUSTAS],1.74 ± 0.053 kcal/mol,1.26 ± 0.059 kcal/mol,1.46 ± 0.13 kcal/mol
SAGGSASMPLTLTFTTPTRTFTVTIPPSKVSSVTVEEKGPTITVTVEAPDSTITINITPSSVTISASAGGSA [r15_598_JUSTAS],2.98 ± 0.13 kcal/mol,4.19 ± 0.13 kcal/mol,3.8 ± 0.12 kcal/mol
SAGGSAGGSAGGFTVTVVEPVDPNDPAFKKLMEERGLPPEEVVATKTLTADSEEEIAALLSAGGSAGGSAGG [r11_83_JUSTAS],0.283 ± 0.099 kcal/mol,0.219 ± 0.15 kcal/mol,0.238 ± 0.12 kcal/mol
SAGGPLSEEELEALRKALEAARAAGAETVTLTATLTVTRTVTLPDGSTRTETRTLTLTLTVTLPPEESAGGS [r8_203_TrROS_Hall],3.74 ± 0.1 kcal/mol,4.73 ± 0.079 kcal/mol,4.45 ± 0.12 kcal/mol
SAGGSQRFRITELVVPEDDGNLFIRVRGPNGKSMFMPASDIEKARKNGKEIEFPFPNGQPFEVEIISAGGSA [r2_301_TrROS],-0.34 ± 0.44 kcal/mol,-0.461 ± 0.66 kcal/mol,-0.411 ± 0.33 kcal/mol
SAGGSAGGSAGGPKVEVLEVFEFGDLRFVKVYDPETGKVTLLAVTRSDGSKVTFFNPEESAGGSAGGSAGGS [r10_655_TrMRF],1.42 ± 0.056 kcal/mol,2.58 ± 0.053 kcal/mol,2.23 ± 0.15 kcal/mol
SAGGSAGGSAGGPDWRMISIPITFRFYVMEYDGGKPKKAEPIHEHPIPIMIMFPPDALKSAGGSAGGSAGGS [r10_492_TrROS],1.87 ± 0.032 kcal/mol,3.35 ± 0.014 kcal/mol,2.91 ± 0.07 kcal/mol
SAGGSAGGSAMEILSKEIIPNNDLIIIDIKVKKKNKEYIYKLIIKGDKIIKISEIEIDDAPSAGGSAGGSAG [r3_48_TrMRF],1.37 ± 0.13 kcal/mol,2.5 ± 0.081 kcal/mol,2.15 ± 0.26 kcal/mol
SAGGSAGGLPEGDIYRIRVTLPNGNTFTITFPVKSVEQAKDFAKSFLESLGLPDVKVDIEPVPVSAGGSAGG [r6_844_TrROS],3.53 ± 0.065 kcal/mol,4.2 ± 0.044 kcal/mol,4 ± 0.074 kcal/mol
SSSVSVTRTRDPRTGRLVVTVSMNYEDDPEEAVEAAKALLEAAGLDVAEVLSITVDPSTGTVTIPIAVAPSA [r9_876_JUSTAS],2.79 ± 0.062 kcal/mol,3.15 ± 0.076 kcal/mol,3.05 ± 0.064 kcal/mol
SAGGMKKVKALVVANPFDPNKYKVFVKAEEEEKVFEFDPNNPEKIIEELEKLLPEDYKLDEIVFESGASAGG [r13_519_TrMRF],0.752 ± 0.032 kcal/mol,2.12 ± 0.058 kcal/mol,1.74 ± 0.1 kcal/mol
SAGGKKKVFLLENGELVVFDPETGKLEPVKLPEIPLTVEVEFEEGEGKIRVTVTNPAGLKLEFEFDFSAGGS [r16_453_TrMRF],2.21 ± 0.12 kcal/mol,3.69 ± 0.1 kcal/mol,3.19 ± 0.15 kcal/mol
SAGEVELEVPIEALKKLPNLEGATVRVTVKLNENGELEITIEVEKAPEPPLTEEEKKKLLEEEEKKKKSAGG [r19_313_TrROS_Hall],-0.203 ± 0.63 kcal/mol,1.31 ± 0.31 kcal/mol,1.06 ± 0.48 kcal/mol
SAGGGNIRPVRIERLPDGSLLIVLVADSPDDAFSDESTLDALPGEEELLEARYDPSTGRVLLVRRFRPSAGG [r13_413_TrMRF],1.33 ± 0.055 kcal/mol,1.71 ± 0.064 kcal/mol,1.55 ± 0.071 kcal/mol
SAGGSAGGSMKVEITKVEPETGPNGRPYYRVEVKVIGEDGSPYTFTFYFEKPSDIENAKISLDSAGGSAGGS [r20_130_TrMRF],2.67 ± 0.19 kcal/mol,3.91 ± 0.07 kcal/mol,3.5 ± 0.21 kcal/mol
SAKKKFKVKEVKVTKHKGKFKIGDKEIEKELYTVNVVIEDENGNKYPFTFTFEKPEELKKFVEKLEEEKSAG [r14_36_TrMRF],3.03 ± 0.17 kcal/mol,4.075 ± 0.028 kcal/mol,3.61 ± 0.2 kcal/mol
SAGGSAGGSAVLDPSSPRPFEIVEVRRVRFEATVSFAGRPRKLEIEVDLLLVRDPSNGRIGSAGGSAGGSAG [r3_391_TrMRF],2.19 ± 0.04 kcal/mol,3.54 ± 0.049 kcal/mol,3.14 ± 0.15 kcal/mol
SAGGATITVEPAPGDSVVALAEFGDSLALVTFYPKEATAKVTVFGPNGIPSTATFTIKPGEELVITGSAGGS [r8_11_TrMRF],1.25 ± 0.079 kcal/mol,1.59 ± 0.096 kcal/mol,1.47 ± 0.13 kcal/mol
SAAVITLETENVTATSTLLEDGSVLVDVVEFYEDGYVSVVKAVIGPDGEIKVVERVVFPVPPPVPPPDASAG [r14_42_TrMRF],2.49 ± 0.094 kcal/mol,2.3 ± 0.094 kcal/mol,2.36 ± 0.18 kcal/mol
SAGGEMVEIVVKFKTKEELEAAIRAALPPGATVEVTVEEKDGELYLTITVPKENAERLREALKKALESAGGS [r16_43_TrROS_Hall],4.2 ± 0.28 kcal/mol,4.48 ± 0.13 kcal/mol,4.57 ± 0.28 kcal/mol

Sequence,folding stability dG unfold [1],folding stability dG unfold [2],folding stability dG unfold [3]
SAGGSAMSITISDISSVKNLTITETTPDGTPVTVTVNATTGSGPPTLTFTATTPGTGATTTTTTAFSAGGSA [r15_1006_JUSTAS],0.693 ± 0.014 kcal/mol,-0.299 ± 0.099 kcal/mol,0.38 ± 0.051 kcal/mol
SAGGSAGGSAGGKKIRFYFPNGNPVELTEILDVDPEDKWARIDVEHNGKKHKHPMPADDLSAGGSAGGSAGG [r7_236_TrROS],-1.36 ± 0.68 kcal/mol,-1.19 ± 0.39 kcal/mol,< -1 kcal/mol
SAGGALEKILEAIENAPTSVPEVTVEIELPTGTLKATITNKGKPVLITIELTHPDGSKSTITLTFSLSAGGS [r16_642_TrMRF],2.78 ± 0.091 kcal/mol,4.28 ± 0.079 kcal/mol,3.78 ± 0.063 kcal/mol
SAGGSAGGSAGGSEGAPIRVTLTGTRTETRTRPDGSPVTDSGTDTVEFTLDLYDPEKSGSAGGSAGGSAGGS [r4_450_TrMRF],-1.4 ± 0.66 kcal/mol,-0.0249 ± 0.13 kcal/mol,-0.363 ± 0.21 kcal/mol
SAGGSAGGSKIKIYPYSTKGKNEVYYLIETENNYLYIKVTIYYDPKTGKPVKIEIKEIFTLPKSAGGSAGGS [r12_70_TrMRF],2.44 ± 0.09 kcal/mol,3.07 ± 0.12 kcal/mol,2.57 ± 0.26 kcal/mol
SAGGSAGGVLRMVRRALKNGKNRPIVIYVPEPEQRNFIKWLKDEWPGIKIKVVPPDQMPPNQIISAGGSAGG [r6_87_TrROS],1.42 ± 0.033 kcal/mol,1.31 ± 0.068 kcal/mol,1.46 ± 0.094 kcal/mol
SAGGSAGGMLLDEDGNLVVKIKLENGEEFEAKVTEIKDGKITVEVNGKKVEINAKDIELLPEDESAGGSAGG [r6_575_TrROS_Hall],2.23 ± 0.088 kcal/mol,2.27 ± 0.05 kcal/mol,2.31 ± 0.096 kcal/mol
SAGGMKVIELTVDEIKELADKLKENKNLKATIYVNGKKVELEFDTVEDALKALKVKPGDTVLIEIEPSAGGS [r16_377_TrROS_Hall],2.6 ± 0.051 kcal/mol,3.88 ± 0.07 kcal/mol,3.48 ± 0.068 kcal/mol
SAGPADPGFLGTRTVPHPDGVVTVDVYRFAGTRVLITITLPDSTVPVEDPVESEEEALAFADAVVAEVGLSA [r9_758_JUSTAS],0.637 ± 0.081 kcal/mol,2.27 ± 0.037 kcal/mol,1.66 ± 0.1 kcal/mol
SAGGGNKVLLVVEAESPEVLEEKIREAEEAFGFTVTPLRREPLPDDRYRLVLEIDAPPEVVEFFKKESAGGS [r8_357_TrMRF],1.15 ± 0.032 kcal/mol,1.35 ± 0.092 kcal/mol,1.3 ± 0.045 kcal/mol
SAGGSAGGSAGGSMITIEVTTPTEKHTIEVPEDEVPEEELIERAKKLFPDVEKITILKESAGGSAGGSAGGS [r4_235_JUSTAS],0.65 ± 0.037 kcal/mol,0.613 ± 0.059 kcal/mol,0.636 ± 0.08 kcal/mol
SAGGSAGGSSYTTSTATDPNADVTTTTTTYPDSIVTPVWDPRTGKVVETVTTTPDGTTTTVAASAGGSAGGS [r12_563_JUSTAS],0.543 ± 0.068 kcal/mol,0.0262 ± 0.17 kcal/mol,0.289 ± 0.14 kcal/mol
KIKIEPGETVRIKVKVKLPDGEEKEIEIELSLEELEKKLGRPLTPEEILNLIKEEAEKKGFEVEEVEIEKES [r1_338_TrROS_Hall],0.391 ± 0.12 kcal/mol,1.38 ± 0.12 kcal/mol,0.961 ± 0.36 kcal/mol
SAGGLEEIAEKIAEELKKKGYKAEIKEVVKPPTNEVVIKYTVTYKDKNEIIEEEEKEITFKLPPGLESAGGS [r8_102_JUSTAS],-0.556 ± 0.16 kcal/mol,0.741 ± 0.14 kcal/mol,0.377 ± 0.16 kcal/mol
SAGGSAGGSAGGSSEPVVILVPVLPDAEEAVVDIGGHPALVKRFPDSPLAAITVPKELLSAGGSAGGSAGGS [r4_430_TrMRF],0.0985 ± 0.033 kcal/mol,-0.581 ± 0.048 kcal/mol,-0.149 ± 0.066 kcal/mol
SAGGSAGGMTLVLEGMSEEELEELARKLRELAEELGLKVKITVERREDGRVRLTVEIELPEELPSAGGSAGG [r6_906_TrROS_Hall],4.36 ± 0.26 kcal/mol,3.69 ± 0.23 kcal/mol,4.15 ± 0.25 kcal/mol
SAGGSAGGSAMTITVEVPPSVPAEEAAERVAERLRAEFPVPDIRVTVETTPDGTVTVTITEASAGGSAGGSA [r18_1_JUSTAS],-0.291 ± 0.16 kcal/mol,0.436 ± 0.09 kcal/mol,0.275 ± 0.1 kcal/mol
SAGMTIEVEYTFPPGNPEEAEKRAEEIAEELKPKPLPNITIEISREPVVDPNSDATTTRYTFTITAEPKSAG [r5_49_JUSTAS],0.821 ± 0.051 kcal/mol,1.19 ± 0.14 kcal/mol,1.02 ± 0.19 kcal/mol
SMLKPGDIVKLPNGPIYVVKKLTISYDPSTSPPKLELELVPLGEPKPVLKEYTLPDGSTKTEIGYYWTGPSA [r9_914_TrMRF],0.922 ± 0.031 kcal/mol,0.995 ± 0.11 kcal/mol,0.98 ± 0.12 kcal/mol
SAGGSAGGSAGGNIEVLPIPDGYWVIKIPDGRIMVFNPGRGEFEPIPIENVTIEPVRPGDSAGGSAGGSAGG [r7_656_TrROS],0.4 ± 0.021 kcal/mol,0.929 ± 0.055 kcal/mol,0.783 ± 0.076 kcal/mol
SAGEKVEITLVVKVEKDEDGRYRLTEEELREIAKALGLDFEVKSVEIERVPGYLVIRVTVDGKEYEFLSAGG [r19_398_TrROS_Hall],2.95 ± 0.089 kcal/mol,3.04 ± 0.033 kcal/mol,2.98 ± 0.069 kcal/mol
